Where two headings read alike, the source gives them in different places. Starred links: 1 amine or outer side, 2 acyl side, 3 side chain; linkers in the order of their positions; H or OH if unused. Positions of bridges follow the written chain, without caps; N, C: chain ends. Non-standard residues stand in square brackets, D forms with d. Residues, ends and D or L forms follow the SMILES beside them. dTyr(O-Me) = O-methyl-D-tyrosine, COc1ccc(C[C@@H](N[*:1])C(=O)[*:2])cc1; dPhe(4-Br) = N[C@H](Cc1ccc(Br)cc1)C(=O)O; dPhe(4-F) = N[C@H](Cc1ccc(F)cc1)C(=O)O; Cit = NC(=O)NCCC[C@H](N)C(=O)O; Nle = CCCC[C@H](N)C(=O)O; Aib = CC(C)(N)C(=O)O
B1: CTX-1285 (peptide)
peptide: Ac-RC[dA][Cit][dF]RWC-NH2
modifications: disulfide 2-8
B2: CTX-1246 (peptide)
peptide: Ac-RC[Aib]R[dPhe(4-Br)]R[dW]C-NH2
modifications: disulfide 2-8
SMILES: CC(=O)N[C@@H](CCCNC(=N)N)C(=O)N[C@H]1CSSC[C@@H](C(N)=O)NC(=O)[C@@H](Cc2c[nH]c3ccccc23)NC(=O)[C@H](CCCNC(=N)N)NC(=O)[C@@H](Cc2ccc(Br)cc2)NC(=O)[C@H](CCCNC(=N)N)NC(=O)C(C)(C)NC1=O
B3: CTX-1227 (peptide)
peptide: Ac-R[Nle]CH[dF]RWC-NH2
modifications: disulfide 3-8
SMILES: CCCC[C@H](NC(=O)[C@H](CCCNC(=N)N)NC(C)=O)C(=O)N[C@H]1CSSC[C@@H](C(N)=O)NC(=O)[C@H](Cc2c[nH]c3ccccc23)NC(=O)[C@H](CCCNC(=N)N)NC(=O)[C@@H](Cc2ccccc2)NC(=O)[C@H](Cc2c[nH]cn2)NC1=O
B4: CTX-1268 (peptide)
peptide: Ac-RCAR[dF]R[dW]C-NH2
modifications: disulfide 2-8
B5: CTX-1236 (peptide)
peptide: Ac-RC[dA]R[dPhe(4-F)]R[dW]C-NH2
modifications: disulfide 2-8
B6: CTX-1211 (peptide)
peptide: Ac-RC[dA]R[dF]RWC-NH2
modifications: disulfide 2-8
SMILES: CC(=O)N[C@@H](CCCNC(=N)N)C(=O)N[C@H]1CSSC[C@@H](C(N)=O)NC(=O)[C@H](Cc2c[nH]c3ccccc23)NC(=O)[C@H](CCCNC(=N)N)NC(=O)[C@@H](Cc2ccccc2)NC(=O)[C@H](CCCNC(=N)N)NC(=O)[C@@H](C)NC1=O
B7: CTX-1238 (peptide)
peptide: Ac-RC[dA]R[dTyr(O-Me)]R[dW]C-NH2
modifications: disulfide 2-8
SMILES: COc1ccc(C[C@H]2NC(=O)[C@H](CCCNC(=N)N)NC(=O)[C@@H](C)NC(=O)[C@@H](NC(=O)[C@H](CCCNC(=N)N)NC(C)=O)CSSC[C@@H](C(N)=O)NC(=O)[C@@H](Cc3c[nH]c4ccccc34)NC(=O)[C@H](CCCNC(=N)N)NC2=O)cc1
B8: CTX-1258 (peptide)
peptide: Ac-RC[dA]R[dPhe(4-Br)]RFC-NH2
modifications: disulfide 2-8
SMILES: CC(=O)N[C@@H](CCCNC(=N)N)C(=O)N[C@H]1CSSC[C@@H](C(N)=O)NC(=O)[C@H](Cc2ccccc2)NC(=O)[C@H](CCCNC(=N)N)NC(=O)[C@@H](Cc2ccc(Br)cc2)NC(=O)[C@H](CCCNC(=N)N)NC(=O)[C@@H](C)NC1=O

What was measured:
[1] = molecular target: plasma protein; assay: plasma ultrafiltration (Centrifree), LC-MS/MS; peptide 0.1 uM
[2] = molecular target: plasma protein; assay: plasma ultrafiltration (Centrifree), LC-MS/MS; peptide 10.0 uM
[3] = molecular target: plasma protein; assay: plasma ultrafiltration (Centrifree), LC-MS/MS; peptide 1.0 uM
[4] = molecular target: T1, human MC4R receptor (human, UniProt P32245 1-332); assay: cell-based or functional assay
[5] = molecular target: T2, human MC3R (Homo sapiens, UniProt P41968); assay: split-luciferase cAMP sensor assay, antagonist mode in presence of EC90 α-MSH (measurement window 2), hMC3R; format: cell-based; settings: agonist curves and antagonist curves in presence of EC80 to EC90 α-MSH
T2 construct: expressed in transfected cells; host or cells: HEK-293 cells stably expressing the GScAMP22F split-luciferase cAMP sensor (parent reporter line from Promega); MC3R clone generated in-house, G418 selection
Method: FIG. 2. […] Concentration-response agonist curves for CTX-2205 and CTX-1214 at the human MC3R (blue) and human MC4R (red) were determined by a split-luciferase cAMP sensor dynamic assay in HEK-293 cells stably expressing the hMC3R or hMC4R and the GScAMP22F CAMP sensor. The antagonist curves were determined in the presence of an EC80 to EC90 concentration of α-MSH. Each data point represents the mean±SEM of two experiments with three replicates each per experiment. Data is normalized to the ECmax of α-MSH.
The assay for the determination of the cAMP response in live cells was described previously. (Yu et al., 2020, Science 368, 428-433; incorporated by reference in its entirety). […] Intracellular cAMP levels were measured using an FDSS 7000EX Functional Drug Screening System (Hamamatsu Photonics, Hamamatsu, Japan) in the Center for Chemical Genomics at the Life Sciences Institute. This instrument allowed the in-line addition of test-peptides and receptor agonists while simultaneously acquiring the luminescence signal from live cells. […]
With this set up it was possible to evaluate the direct effect of the test-peptides on the MC3R and MC4R cell lines during measurement window 1, while the antagonist profile in the presence of EC90 α-MSH was determined on measurement window 2. […]

[6] = molecular target: T2, human MC3R; assay: split-luciferase cAMP sensor assay, agonist mode (measurement window 1), hMC3R; format: cell-based; settings: agonist mode, hMC3R stable cell line; for Emax: read-out: MC3R cAMP % max activation
Outline: (§1)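 Live stable cell lines carrying receptor plus GloSensor cAMP22f split-luciferase, loaded with 4% D-luciferin in serum-free medium (~1% serum estimated during assay). Luminescence recorded during in-line peptide addition; direct agonist effect read in window 1, with 20 μM forskolin as normalization reference. EC50 from four-parameter sigmoid fit.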

[7] = molecular target: T3, human MC4R (Homo sapiens, UniProt P32245); assay: split-luciferase cAMP sensor assay, agonist mode (measurement window 1), hMC4R; format: cell-based; settings: for Emax: read-out: MC4R cAMP % max activation
T3 construct: host or cells: HEK-293 cells stably expressing the GScAMP22F split-luciferase cAMP sensor and hMC4R, G418 selection
Outline: as §1

[8] = molecular target: T1, human MC4R receptor; assay: cell-based or functional assay; remark: listed apart in the source
[9] = molecular target: T4, human MC3R (human, UniProt P41968 1-323); assay: cell-based or functional assay
[10] = molecular target: T1, human MC4R receptor; assay: cell-based or functional assay; remark: listed apart in the source
[11] = molecular target: T4, human MC3R; assay: cell-based or functional assay; remark: listed apart in the source
[12] = molecular target: T1, human MC4R receptor; assay: cell-based or functional assay; remark: listed apart in the source
[13] = molecular target: T1, human MC4R receptor; assay: cell-based or functional assay; remark: listed apart in the source
[14] = agonist mode, hMC4R stable cell line

T1 sequence (P32245 whole entry): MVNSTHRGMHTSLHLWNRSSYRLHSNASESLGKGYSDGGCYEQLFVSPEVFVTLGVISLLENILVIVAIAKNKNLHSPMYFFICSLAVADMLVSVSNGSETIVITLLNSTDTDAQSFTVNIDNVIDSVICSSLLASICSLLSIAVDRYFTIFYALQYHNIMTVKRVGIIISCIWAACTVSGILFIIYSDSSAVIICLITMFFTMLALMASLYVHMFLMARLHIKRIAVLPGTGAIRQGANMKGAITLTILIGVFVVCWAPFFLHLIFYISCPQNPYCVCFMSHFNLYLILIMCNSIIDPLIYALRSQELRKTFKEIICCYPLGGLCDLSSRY
T3 sequence (P32245 whole entry): as above
T2 sequence (P41968 whole entry): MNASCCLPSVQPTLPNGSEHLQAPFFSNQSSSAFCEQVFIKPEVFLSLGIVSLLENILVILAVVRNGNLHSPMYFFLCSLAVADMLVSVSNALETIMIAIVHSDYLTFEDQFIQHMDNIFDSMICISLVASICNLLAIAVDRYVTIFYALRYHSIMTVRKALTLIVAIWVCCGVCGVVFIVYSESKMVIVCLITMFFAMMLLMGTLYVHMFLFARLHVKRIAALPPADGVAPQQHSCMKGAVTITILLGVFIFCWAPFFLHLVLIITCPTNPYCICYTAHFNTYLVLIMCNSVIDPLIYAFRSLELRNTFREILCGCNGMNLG
T4 sequence (P41968 whole entry): as above

| Molecule | Protein Binding (%) [1] [%] | Protein Binding (%) [2] [%] | Protein Binding (%) [3] [%] | % max activation [8] [%] | cAMP EC50 [8] [nM] | % max activation [9] [%] | cAMP EC50 [9] [nM] | MC4R selectivity vs MC1R [10] | MC4R selectivity vs MC3R [10] | % max activation [11] [%] | also measured |
| --- | --- | --- | --- | --- | --- | --- | --- | --- | --- | --- | --- |
| CTX-1200 (setmelanotide) (peptide) | 43 | 61 | 57 |  |  |  |  |  |  |  | MC4R selectivity vs MC1R [4]: 0.69; MC4R selectivity vs MC3R [4]: 4.09 |
| CC(=O)N[C@@H](CCCNC(=N)N)C(=O)N[C@H]1CSSC[C@@H](C(N)=O)NC(=O)[C@@H](Cc2c[nH]c3ccccc23)NC(=O)[C@H](CCCNC(=N)N)NC(=O)[C@@H](Cc2ccc(Br)cc2)NC(=O)[C@H](CCCNC(=N)N)NC(=O)[C@@H](C)NC1=O [CTX-1214, Arg-cyclo(Cys-D-Ala-Arg-D-Phe(4-Br)-Arg-D-Trp-Cys)] (Ac-RC[dA]R[dPhe(4-Br)]R[dW]C-NH2; disulfide 2-8 (inferred)) |  |  |  |  |  |  |  |  |  |  | pharmacological properties at hMC4R and hMC3R [5]: dual MC4R agonist, MC3R antagonist properties; Emax [6]: 15%; EC50 ([6]; read-out: MC3R cAMP EC50): 4.1 nM; MC4R selectivity vs MC3R [7]: 0.2; Emax [7, 14]: 74%; EC50 ([7]; agonist mode, hMC4R stable cell line, read-out: MC4R cAMP EC50): 2.6 nM |
| CC(=O)N[C@@H](CCCNC(=N)N)C(=O)N[C@H]1CSSC[C@@H](C(N)=O)NC(=O)[C@H](Cc2c[nH]c3ccccc23)NC(=O)[C@H](CCCNC(=N)N)NC(=O)[C@@H](Cc2ccc(Br)cc2)NC(=O)[C@H](CCCNC(=N)N)NC(=O)[C@@H](C)NC1=O [CTX-2205, Arg-cyclo(Cys-D-Ala-Arg-D-Phe(4-Br)-Arg-Trp-Cys)] (Ac-RC[dA]R[dPhe(4-Br)]RWC-NH2; disulfide 2-8) |  |  |  |  |  |  |  |  |  |  | pharmacological properties at hMC4R and hMC3R [5]: dual MC4R agonist, MC3R antagonist properties; Emax [6]: 13%; MC4R selectivity vs MC1R [7]: 0.2; MC4R selectivity vs MC3R [7]: 2.12; Emax [7, 14]: 88% |
| B1 | 45 | 41 | 39 | 94 | 1.7 | 28 | 4.9 | 134 | 2.9 |  |  |
| B2 | 73 | 43 | 44 |  |  |  |  |  |  | 21 |  |
| B3 | 50 | 54 | 47 | 103 | 0.3 | 96 | 2.8 | 0.92 | 11 |  |  |
| B4 | 52 | 62 | 58 | 96 | 7 | 44 | 211 | 6.59 | 30 |  |  |
| B5 | 45 | 51 | 49 |  |  |  |  |  |  | 66 | MC4R selectivity vs MC1R [12]: 2.01; MC4R selectivity vs MC3R [12]: 1.36; % max activation [13]: 97%; cAMP EC50 [13]: 1.9 nM; cAMP EC50 [11]: 2.6 nM |
| B6 | 51 | 61 | 63 | 96 | 0.38 | 91 | 2.1 | 3.12 | 5.49 |  |  |
| B7 | 53 | 41 | 47 |  |  |  |  |  |  | 21 | MC4R selectivity vs MC1R [12]: 0.44; MC4R selectivity vs MC3R [12]: 0.49; % max activation [13]: 79%; cAMP EC50 [13]: 6.2 nM; cAMP EC50 [11]: 3 nM |
| B8 | 47 | 50 | 50 |  |  |  |  |  |  | 36 | MC4R selectivity vs MC1R [12]: 0.53; MC4R selectivity vs MC3R [12]: 3.04; % max activation [13]: 92%; cAMP EC50 [13]: 2.4 nM; cAMP EC50 [11]: 7.4 nM |

Source: patent US20240391954A1, “MC4R AGONIST PEPTIDES” (The Regents of the University of Michigan, priority 2021, published 2024)
